Data on two molecules can be found in patent US20220204629A1.

The target in experiment [1] is recombinant, full length human Galectin-9 (R&D Systems 2045-GA) (human) (UniProt O00182). Nature of the experiment: cell-based or functional assay.
For experiment [2], the target named is mouse Galectin-9 CRD2 (residues 226-353) (mouse) (UniProt O08573). Nature of the experiment: bead based binding, mouse CRD2.
The target is the same in experiment [3]. The experiment is described as follows: SPR, One Step method, Pioneer; mouse CRD2.
Experiment [4] concerns the target galectin-9 on the cell surface of the CRL-2134 cell line (human) (UniProt O00182). The experiment is described as follows: flow cytometry, saturation curve on CRL-2134 cells.
Experiment [5] addresses mouse Galectin-9 CRD2 (residues 226-353) (mouse) (UniProt O08573). The experiment is described as follows: biolayer interferometry, G9.2-17 captured on anti-Fab probes, mouse gal-9 CRD2 in solution, global fit. In general terms: Biolayer interferometry detects binding as a change in optical thickness at a sensor tip.
For experiment [6], the target named is galectin-9 on the cell surface of the CRL-2134 cell line (human) (UniProt O00182). The experiment is described as follows: cell based binding, flow cytometry on CRL-2134 cells. (In general: Flow cytometry measures light scatter and fluorescence of single cells or particles in a stream.)

Chain of recombinant, full length human Galectin-9 (R&D Systems 2045-GA) (human) (O00182 other isoform, or with tags, fused parts or gaps limits assumed): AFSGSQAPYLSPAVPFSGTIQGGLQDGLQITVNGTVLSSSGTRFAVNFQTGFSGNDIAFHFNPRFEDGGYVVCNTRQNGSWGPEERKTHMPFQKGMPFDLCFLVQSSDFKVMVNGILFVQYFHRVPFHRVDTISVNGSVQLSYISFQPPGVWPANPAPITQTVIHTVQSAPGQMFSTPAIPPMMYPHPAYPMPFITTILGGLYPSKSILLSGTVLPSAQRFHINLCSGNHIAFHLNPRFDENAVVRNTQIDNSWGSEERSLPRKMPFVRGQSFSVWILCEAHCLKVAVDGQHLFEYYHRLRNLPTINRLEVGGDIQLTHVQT

B1: G9.2-17 human IgG4 (antibody, V domains shown)
VH: EVQLVESGGGLVQPGGSLRLSCAASGFTVSSSSIHWVRQAPGKGLEWVAYISSSSGYTYYADSVKGRFTISADTSKNTAYLQMNSLRAEDTAVYYCARYWSYPSWWPYRGMDYWGQGTLVTVSS
VL: DIQMTQSPSSLSASVGDRVTITCRASQSVSSAVAWYQQKPGKAPKLLIYSASSLYSGVPSRFSGSRSGTDFTLTISSLQPEDFATYYCQQSSTDPITFGQGTKVEIKR
With B1, the MOLM-13 T cell apoptosis assay in experiment [1] amounted to 10%. Further, the equilibrium dissociation constant (Kd) (commonly a measure of binding affinity in units of concentration) was 0.3 nM in experiment [2], 1.8 nM in experiment [3], 0.41 nM in experiment [4] and 1.6 nM in experiment [5].

B2: G9.2-17 mIgG1 (antibody, V domains shown)
VH: B1 VH
VL: B1 VL
As for B2, the Kd was 0.3 nM in experiment [2], 3.05 nM in experiment [3], 2.9 nM in experiment [4] and 2.91 nM in experiment [6].
